Experimental data from paper PMC10681803, “Dynamic ParB–DNA interactions initiate and maintain a partition condensate for bacterial chromosome segregation” (Nucleic Acids Research, 2023).

Legend:
[1] = molecular target: the molecule itself; assay: single-molecule fluorescence DNA-stretching assay (HiLo/TIRF microscopy); 42 kb DNA with a single parS tethered at both ends, SxG stain; 0.3 nM ParB^TMR in imaging buffer (40 mM Tris-HCl, 65 mM KCl, 2.5 mM MgCl2, 1 mM CTP); both ParB dimers loaded on the DNA
[2] = molecular target: the molecule itself; assay: cross-linking; BMOE cysteine cross-linking of ParB^T22C [2 uM] with ~200 bp DNA with parS [2 uM] and 1 mM CTP, room temperature, quenched with DTT, 12% SDS-PAGE
[3] = molecular target: the molecule itself; assay: cross-linking; BMOE (1 mM) cysteine cross-linking of ParB^S278C at 10 uM in storage buffer (50 mM Tris-HCl pH 7.5, 300 mM NaCl) without DNA, quenched with DTT, 12% SDS-PAGE

B1: TMR-labelled Bacillus subtilis ParB L5C (natural protein, UniProt P26497 1-282, looked up)
chain: MAKGCGKGINALFNQVDLSEETVEEIKIADLRPNPYQPRKHFDDEALAELKESVLQHGILQPLIVRKSLKGYDIVAGERRFRAAKLAGLDTVPAIVRELSEALMREIALLENLQREDLSPLEEAQAYDSLLKHLDLTQEQLAKRLGKSRPHIANHLRLLTLPENIQQLIAEGTLSMGHGRTLLGLKNKNKLEPLVQKVIAEQLNVRQLEQLIQQLNQNVPRETKKKEPVKDAVLKERESYLQNYFGTTVNIKRQKKKGKIEIEFFSNEDLDRILELLSERES
modifications: TMR-maleimide label on the ParB^L5C variant (labelling efficiency 70% of monomers)
notes: ParB (Spo0J) of Bacillus subtilis with L5C, expressed untagged; Untagged; also called ParB^TMR; source: E. coli BL21-Gold (DE3), purified (ammonium sulfate, Heparin, HiTrap SP, Superdex 200), labelled with TMR-maleimide
[1]
  binding result: binds

B2: Bacillus subtilis ParB T22C (natural protein, UniProt P26497 1-282, looked up)
chain: MAKGLGKGINALFNQVDLSEECVEEIKIADLRPNPYQPRKHFDDEALAELKESVLQHGILQPLIVRKSLKGYDIVAGERRFRAAKLAGLDTVPAIVRELSEALMREIALLENLQREDLSPLEEAQAYDSLLKHLDLTQEQLAKRLGKSRPHIANHLRLLTLPENIQQLIAEGTLSMGHGRTLLGLKNKNKLEPLVQKVIAEQLNVRQLEQLIQQLNQNVPRETKKKEPVKDAVLKERESYLQNYFGTTVNIKRQKKKGKIEIEFFSNEDLDRILELLSERES
notes: ParB (Spo0J) of Bacillus subtilis with T22C, expressed untagged; Untagged; C22 of the two chains is cross-linked by BMOE in the N-terminally closed clamp; source: E. coli BL21-Gold (DE3), purified
[2]
  binding result: binds

B3: Bacillus subtilis ParB S278C (natural protein, UniProt P26497 1-282, looked up)
chain: MAKGLGKGINALFNQVDLSEETVEEIKIADLRPNPYQPRKHFDDEALAELKESVLQHGILQPLIVRKSLKGYDIVAGERRFRAAKLAGLDTVPAIVRELSEALMREIALLENLQREDLSPLEEAQAYDSLLKHLDLTQEQLAKRLGKSRPHIANHLRLLTLPENIQQLIAEGTLSMGHGRTLLGLKNKNKLEPLVQKVIAEQLNVRQLEQLIQQLNQNVPRETKKKEPVKDAVLKERESYLQNYFGTTVNIKRQKKKGKIEIEFFSNEDLDRILELLCERES
notes: ParB (Spo0J) of Bacillus subtilis with S278C, expressed untagged; Untagged; C278 of the two chains is cross-linked by BMOE at the C-terminus; source: E. coli BL21-Gold (DE3), purified
[3]
  binding result: binds
